The values that follow come from publication PMC4521584, “MutS/MutL crystal structure reveals that the MutS sliding clamp loads MutL onto DNA” (eLife, 2015).

For the test, the target named is T1, WT MutS, full length (E. coli, UniProt P23909 1-853).
T1 construct: MutS, E. coli, wild type; also called MutS sliding clamp; source: mutS gene in vector pET-3D; purified as described previously
T1 sequence (looked up): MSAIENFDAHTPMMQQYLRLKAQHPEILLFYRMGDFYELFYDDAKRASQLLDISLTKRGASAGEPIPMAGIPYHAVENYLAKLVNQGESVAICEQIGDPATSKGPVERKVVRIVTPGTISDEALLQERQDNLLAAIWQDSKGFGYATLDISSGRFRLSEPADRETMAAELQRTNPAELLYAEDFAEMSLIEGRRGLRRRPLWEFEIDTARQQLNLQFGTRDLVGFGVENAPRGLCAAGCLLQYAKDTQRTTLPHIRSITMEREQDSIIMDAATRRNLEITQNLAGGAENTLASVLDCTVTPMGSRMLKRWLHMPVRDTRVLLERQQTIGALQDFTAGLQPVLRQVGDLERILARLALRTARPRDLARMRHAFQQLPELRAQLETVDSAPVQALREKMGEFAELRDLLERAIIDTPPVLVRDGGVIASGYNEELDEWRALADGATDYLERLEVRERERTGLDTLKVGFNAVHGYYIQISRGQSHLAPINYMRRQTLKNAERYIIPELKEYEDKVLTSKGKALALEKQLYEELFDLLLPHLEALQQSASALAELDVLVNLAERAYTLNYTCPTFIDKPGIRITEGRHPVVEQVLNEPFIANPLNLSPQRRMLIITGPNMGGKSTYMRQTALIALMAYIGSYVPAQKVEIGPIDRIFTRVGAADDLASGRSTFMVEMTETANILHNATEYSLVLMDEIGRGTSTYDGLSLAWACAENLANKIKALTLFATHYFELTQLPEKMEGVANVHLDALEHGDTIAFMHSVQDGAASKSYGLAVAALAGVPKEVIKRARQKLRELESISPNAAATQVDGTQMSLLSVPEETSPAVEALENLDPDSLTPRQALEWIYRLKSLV
Put plainly: SPR; two-step: 200 nM MutS with 1 mM ATP trapped as sliding clamps on immobilised, end-blocked 100-bp G:T DNA, then MutL (varying concentrations, 1 mM ATP) injected 120 s; MutS-only signal subtracted; 25 mM Hepes pH 7.5, 150 mM KCl, 5 mM MgCl2, 1 mM DTT, 0.05% TWEEN-20, 20% glycerol; not strictly affinity curves. The following applies: both partners purified. A general note: SPR reads the build-up and loss of mass on a sensor chip optically.

B1: WT His6-MutL, full length (natural protein, E. coli, UniProt P23367 1-615, looked up)
chain: MPIQVLPPQLANQIAAGEVVERPASVVKELVENSLDAGATRIDIDIERGGAKLIRIRDNGCGIKKDELALALARHATSKIASLDDLEAIISLGFRGEALASISSVSRLTLTSRTAEQQEAWQAYAEGRDMNVTVKPAAHPVGTTLEVLDLFYNTPARRKFLRTEKTEFNHIDEIIRRIALARFDVTINLSHNGKIVRQYRAVPEGGQKERRLGAICGTAFLEQALAIEWQHGDLTLRGWVADPNHTTPALAEIQYCYVNGRMMRDRLINHAIRQACEDKLGADQQPAFVLYLEIDPHQVDVNVHPAKHEVRFHQSRLVHDFIYQGVLSVLQQQLETPLPLDDEPQPAPRSIPENRVAAGRNHFAEPAAREPVAPRYTPAPASGSRPAAPWPNAQPGYQKQQGEVYRQLLQTPAPMQKLKAPEPQEPALAANSQSFGRVLTIVHSDCALLERDGNISLLSLPVAERWLRQAQLTPGEAPVCAQPLLIPLRLKVSAEEKSALEKAQSALAELGIDFQSDAQHVTIRAVPLPLRQQNLQILIPELIGYLAKQSVFEPGNIAQWIARNLMSEHAQWSMAQAITLLADVERLCPQLVKTPPGGLLQSVDLHPAIKALKDE
notes: MutL, E. coli, wild type; also called WT MutL; WT His-MutL; source: mutL gene in plasmid pTX418; purified as described previously
On to B1, for which the binding result is on record as “binds”.
